Biological target: Ribulose-5-phosphate epimerase of Leishmania donovani (Leishmania donovani)
Assay: SEC

Ribulose-5-phosphate epimerase of Leishmania donovani (enzyme)
stoichiometry N: 2

Reference: paper PMC8756792
